This note sets out measurements from US20030138946A1.

The experiment addresses T1, soluble H-2 K^b (K^bsol): heterodimer of truncated K^b heavy chain and murine β-2 microglobulin, purified from Drosophila cells (murine), P01901.
T1 chain 1: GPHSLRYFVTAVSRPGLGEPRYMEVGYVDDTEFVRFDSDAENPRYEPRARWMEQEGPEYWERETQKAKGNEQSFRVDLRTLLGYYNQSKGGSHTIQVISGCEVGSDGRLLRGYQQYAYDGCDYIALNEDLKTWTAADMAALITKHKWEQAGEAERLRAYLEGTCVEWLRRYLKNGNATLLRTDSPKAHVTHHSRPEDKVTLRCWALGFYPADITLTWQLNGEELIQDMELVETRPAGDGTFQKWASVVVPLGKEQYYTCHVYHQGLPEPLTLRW
T1 chain 2: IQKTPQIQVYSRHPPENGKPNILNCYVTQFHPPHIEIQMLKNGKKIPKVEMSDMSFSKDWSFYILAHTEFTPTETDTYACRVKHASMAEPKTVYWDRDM

As a reminder, the Kd is the equilibrium constant for the complex coming apart. A higher Kd goes with lower affinity. Take SIINFEKLT (modifications not checked) [OVA-9C]: the dissociation constant Kd stood at 11 nM.
For LESIINFEKL (modifications not checked) [OVA-10N] the value was 280 nM; for SIINFEKL (modifications not checked) [OVA-8 (ovalbumin 257-264)], 4.1 nM.
For SIINFEKLTE (modifications not checked) [OVA-10C] the value was 14 nM.
